Measured values taken from US20240261333A1, “NOVEL TARGETS FOR ENHANCING ANTI-TUMOR IMMUNITY” (THE BROAD INSTITUTE, INC., priority 2021, published 2024).

Key:
[1] = molecular target: T1, YTHDF2 (human) (UniProt Q9Y5A9); assay: co-IP with anti-FLAG, C-FLAG B3GNT2, mass spectrometry
T1 sequence (looked up): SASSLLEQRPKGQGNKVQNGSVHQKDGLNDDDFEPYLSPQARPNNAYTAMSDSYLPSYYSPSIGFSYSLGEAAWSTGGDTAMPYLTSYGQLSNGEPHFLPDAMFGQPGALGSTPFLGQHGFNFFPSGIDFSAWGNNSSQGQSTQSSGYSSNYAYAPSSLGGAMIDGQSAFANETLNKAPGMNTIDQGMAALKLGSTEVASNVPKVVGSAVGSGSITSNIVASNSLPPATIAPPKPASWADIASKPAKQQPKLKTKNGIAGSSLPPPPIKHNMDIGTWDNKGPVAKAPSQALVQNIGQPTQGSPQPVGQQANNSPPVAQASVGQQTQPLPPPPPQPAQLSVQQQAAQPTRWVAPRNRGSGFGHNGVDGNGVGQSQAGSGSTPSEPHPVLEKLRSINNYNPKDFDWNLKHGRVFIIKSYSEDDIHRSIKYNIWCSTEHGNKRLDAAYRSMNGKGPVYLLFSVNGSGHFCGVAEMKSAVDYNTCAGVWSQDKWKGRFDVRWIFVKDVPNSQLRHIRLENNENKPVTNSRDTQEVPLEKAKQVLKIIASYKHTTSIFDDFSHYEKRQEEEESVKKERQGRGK

[2] = molecular target: TBL2 (human) (UniProt Q9Y4P3); assay: as above
[3] = molecular target: RPS26 (human) (UniProt P62854); assay: as above
[4] = molecular target: MMP14 (human) (UniProt P50281); assay: as above
[5] = molecular target: RPS24 (human) (UniProt P62847); assay: as above
[6] = molecular target: NAP1L1 (human) (UniProt P55209); assay: as above
[7] = molecular target: RPS27A (human) (UniProt P62979); assay: as above
[8] = molecular target: LAMC1 (human) (UniProt P11047); assay: as above
[9] = molecular target: LUC7L3 (human) (UniProt O95232); assay: as above
[10] = molecular target: KCTD5 (human) (UniProt Q9NXV2); assay: as above
[11] = molecular target: RACK1 (human) (UniProt P63244); assay: as above
[12] = molecular target: RPL28 (human) (UniProt P46779); assay: as above
[13] = molecular target: HNRNPH1 (human) (UniProt P31943); assay: as above
[14] = molecular target: FBXO6 (human) (UniProt Q9NRD1); assay: IgG control IP from lysate of N-FLAG B3GNT2 cells, mass spectrometry
[15] = molecular target: DNAJA3 (human) (UniProt Q96EY1); assay: as above
[16] = molecular target: RPL34 (human) (UniProt P49207); assay: as above
[17] = molecular target: IFI16 (human) (UniProt Q16666); assay: as above
[18] = molecular target: EEF2 (human) (UniProt P13639); assay: as above
[19] = molecular target: HSP90AB1 (human) (UniProt P08238); assay: as above
[20] = molecular target: PXN (human) (UniProt P49023); assay: as above
[21] = molecular target: TECR (human) (UniProt Q9NZ01); assay: as above
[22] = molecular target: LDHA (human) (UniProt P00338); assay: as above
[23] = molecular target: ABCD1 (human) (UniProt P33897); assay: as above
[24] = molecular target: ERP29 (human) (UniProt P30040); assay: as above
[25] = molecular target: SFXN3 (human) (UniProt Q9BWM7); assay: as above
[26] = molecular target: PSMC2 (human) (UniProt P35998); assay: as above
[27] = molecular target: SLC25A22 (human) (UniProt Q9H936); assay: as above
[28] = molecular target: RRBP1 (human) (UniProt Q9P2E9); assay: as above
[29] = molecular target: PSMA5 (human) (UniProt P28066); assay: as above
[30] = molecular target: RPS6 (human) (UniProt P62753); assay: as above
[31] = molecular target: ELOC (human) (UniProt Q15369); assay: as above
[32] = molecular target: H1FX (human) (UniProt Q92522); assay: as above
[33] = molecular target: STAU1 (human) (UniProt O95793); assay: as above
STAU1 (human), sequence (O95793 other isoform, or with tags, fused parts or gaps limits assumed): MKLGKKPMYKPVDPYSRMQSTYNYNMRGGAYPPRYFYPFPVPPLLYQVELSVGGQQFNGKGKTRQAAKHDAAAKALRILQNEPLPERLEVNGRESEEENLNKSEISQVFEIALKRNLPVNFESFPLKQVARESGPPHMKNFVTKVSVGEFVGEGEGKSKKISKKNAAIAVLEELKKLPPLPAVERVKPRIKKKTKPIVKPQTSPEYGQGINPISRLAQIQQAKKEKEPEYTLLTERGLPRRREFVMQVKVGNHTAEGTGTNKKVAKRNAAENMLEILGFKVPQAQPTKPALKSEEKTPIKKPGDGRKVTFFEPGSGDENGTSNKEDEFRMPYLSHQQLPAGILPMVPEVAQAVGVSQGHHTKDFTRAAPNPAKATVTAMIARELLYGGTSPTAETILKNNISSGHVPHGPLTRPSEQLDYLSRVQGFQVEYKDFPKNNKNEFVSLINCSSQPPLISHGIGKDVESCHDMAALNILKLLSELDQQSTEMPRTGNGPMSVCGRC

PSMC2 (human), sequence (P35998 2-433 limits assumed): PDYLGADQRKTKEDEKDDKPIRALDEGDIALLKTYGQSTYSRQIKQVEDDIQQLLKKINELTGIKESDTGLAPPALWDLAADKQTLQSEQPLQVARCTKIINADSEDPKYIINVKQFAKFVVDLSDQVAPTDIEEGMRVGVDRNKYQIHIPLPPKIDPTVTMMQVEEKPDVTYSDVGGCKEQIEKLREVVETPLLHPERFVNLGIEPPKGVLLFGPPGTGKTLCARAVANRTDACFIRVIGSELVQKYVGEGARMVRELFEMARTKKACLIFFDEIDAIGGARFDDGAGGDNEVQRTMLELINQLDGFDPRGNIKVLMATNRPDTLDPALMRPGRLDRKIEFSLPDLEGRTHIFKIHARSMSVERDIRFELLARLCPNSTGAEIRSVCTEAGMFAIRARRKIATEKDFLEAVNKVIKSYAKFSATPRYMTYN
ELOC (human), sequence (Q15369 whole entry): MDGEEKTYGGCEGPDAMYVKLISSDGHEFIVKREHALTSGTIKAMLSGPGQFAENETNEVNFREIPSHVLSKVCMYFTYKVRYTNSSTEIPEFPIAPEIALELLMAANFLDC
DNAJA3 (human), sequence (Q96EY1 other isoform, or with tags, fused parts or gaps limits assumed): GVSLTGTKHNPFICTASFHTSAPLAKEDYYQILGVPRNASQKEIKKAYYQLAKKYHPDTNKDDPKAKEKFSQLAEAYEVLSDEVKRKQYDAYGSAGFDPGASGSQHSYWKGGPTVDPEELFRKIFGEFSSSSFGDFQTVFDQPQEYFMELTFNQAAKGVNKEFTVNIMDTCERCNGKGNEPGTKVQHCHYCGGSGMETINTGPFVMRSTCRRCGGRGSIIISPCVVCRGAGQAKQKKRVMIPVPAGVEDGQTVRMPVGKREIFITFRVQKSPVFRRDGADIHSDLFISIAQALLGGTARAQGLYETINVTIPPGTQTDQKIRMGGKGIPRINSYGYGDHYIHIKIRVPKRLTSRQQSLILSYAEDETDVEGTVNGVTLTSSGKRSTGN
HSP90AB1 (human), sequence (P08238 2-724 limits assumed): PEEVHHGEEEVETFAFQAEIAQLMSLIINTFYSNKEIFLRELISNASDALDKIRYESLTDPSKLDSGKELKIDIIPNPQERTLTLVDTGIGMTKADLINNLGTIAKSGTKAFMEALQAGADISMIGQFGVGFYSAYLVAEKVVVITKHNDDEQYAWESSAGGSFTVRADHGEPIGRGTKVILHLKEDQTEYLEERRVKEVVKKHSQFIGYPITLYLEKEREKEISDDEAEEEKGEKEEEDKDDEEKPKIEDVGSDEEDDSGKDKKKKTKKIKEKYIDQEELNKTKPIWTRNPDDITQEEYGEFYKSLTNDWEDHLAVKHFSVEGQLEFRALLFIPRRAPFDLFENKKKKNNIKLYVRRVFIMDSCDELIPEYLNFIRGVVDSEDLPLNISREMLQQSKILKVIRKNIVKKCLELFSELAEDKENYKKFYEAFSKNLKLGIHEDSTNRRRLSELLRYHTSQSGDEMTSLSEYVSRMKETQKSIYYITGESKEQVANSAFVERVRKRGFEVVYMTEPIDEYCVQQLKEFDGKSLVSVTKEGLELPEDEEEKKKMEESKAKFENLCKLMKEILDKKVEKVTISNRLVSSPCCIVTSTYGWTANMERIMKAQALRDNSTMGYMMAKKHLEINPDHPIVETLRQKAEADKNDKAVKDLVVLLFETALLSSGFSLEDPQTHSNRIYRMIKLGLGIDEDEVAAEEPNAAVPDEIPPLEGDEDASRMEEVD
SLC25A22 (human), sequence (Q9H936 whole entry): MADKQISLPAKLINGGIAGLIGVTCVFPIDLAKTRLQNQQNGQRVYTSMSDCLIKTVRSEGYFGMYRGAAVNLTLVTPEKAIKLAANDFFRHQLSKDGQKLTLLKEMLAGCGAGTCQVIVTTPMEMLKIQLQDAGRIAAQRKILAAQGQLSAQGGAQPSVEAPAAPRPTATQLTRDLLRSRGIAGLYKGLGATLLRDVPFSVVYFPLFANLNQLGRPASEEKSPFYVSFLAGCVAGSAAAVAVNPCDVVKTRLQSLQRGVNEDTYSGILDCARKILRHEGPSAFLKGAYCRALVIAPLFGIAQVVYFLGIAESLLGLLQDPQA
LAMC1 (human), sequence (P11047 34-1609 limits assumed): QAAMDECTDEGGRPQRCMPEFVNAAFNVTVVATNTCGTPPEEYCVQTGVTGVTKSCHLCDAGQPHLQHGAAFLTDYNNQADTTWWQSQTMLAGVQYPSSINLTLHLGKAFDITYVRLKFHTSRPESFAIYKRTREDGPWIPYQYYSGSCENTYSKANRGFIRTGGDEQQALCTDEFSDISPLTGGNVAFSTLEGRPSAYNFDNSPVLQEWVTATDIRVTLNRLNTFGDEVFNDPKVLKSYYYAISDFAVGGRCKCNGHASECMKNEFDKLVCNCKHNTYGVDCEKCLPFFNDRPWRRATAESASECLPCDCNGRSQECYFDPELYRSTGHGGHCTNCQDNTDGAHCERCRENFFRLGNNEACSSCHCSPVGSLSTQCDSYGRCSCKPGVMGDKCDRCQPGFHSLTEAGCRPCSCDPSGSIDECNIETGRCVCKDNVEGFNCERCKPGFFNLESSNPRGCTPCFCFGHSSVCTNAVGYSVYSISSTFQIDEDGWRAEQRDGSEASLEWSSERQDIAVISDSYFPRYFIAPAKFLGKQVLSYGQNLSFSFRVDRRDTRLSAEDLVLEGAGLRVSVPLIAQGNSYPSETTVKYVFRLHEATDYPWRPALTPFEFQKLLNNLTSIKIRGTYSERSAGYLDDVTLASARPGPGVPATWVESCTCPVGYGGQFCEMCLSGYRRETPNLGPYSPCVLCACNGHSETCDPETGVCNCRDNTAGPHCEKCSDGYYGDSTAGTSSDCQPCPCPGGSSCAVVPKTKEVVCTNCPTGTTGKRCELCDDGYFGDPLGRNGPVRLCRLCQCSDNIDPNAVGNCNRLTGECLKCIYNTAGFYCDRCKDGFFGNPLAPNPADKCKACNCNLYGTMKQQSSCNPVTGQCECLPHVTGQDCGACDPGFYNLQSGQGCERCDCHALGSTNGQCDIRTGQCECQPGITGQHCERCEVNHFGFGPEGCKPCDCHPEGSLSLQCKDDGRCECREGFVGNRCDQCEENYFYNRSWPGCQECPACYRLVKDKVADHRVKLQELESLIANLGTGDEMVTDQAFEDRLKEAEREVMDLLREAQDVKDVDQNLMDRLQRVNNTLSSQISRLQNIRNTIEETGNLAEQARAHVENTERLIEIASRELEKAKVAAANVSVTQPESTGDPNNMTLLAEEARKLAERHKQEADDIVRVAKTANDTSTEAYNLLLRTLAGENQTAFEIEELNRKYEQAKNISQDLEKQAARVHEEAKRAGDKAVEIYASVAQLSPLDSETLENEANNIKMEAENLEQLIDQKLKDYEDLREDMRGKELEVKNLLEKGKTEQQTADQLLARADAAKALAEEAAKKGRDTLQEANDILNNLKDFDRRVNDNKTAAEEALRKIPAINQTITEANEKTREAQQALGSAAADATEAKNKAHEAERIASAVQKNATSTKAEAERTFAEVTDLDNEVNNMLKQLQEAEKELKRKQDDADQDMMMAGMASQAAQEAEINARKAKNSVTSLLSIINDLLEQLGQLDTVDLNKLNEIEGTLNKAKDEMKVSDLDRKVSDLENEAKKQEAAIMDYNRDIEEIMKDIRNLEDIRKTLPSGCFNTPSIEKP
H1FX (human), sequence (Q92522 2-213 limits assumed): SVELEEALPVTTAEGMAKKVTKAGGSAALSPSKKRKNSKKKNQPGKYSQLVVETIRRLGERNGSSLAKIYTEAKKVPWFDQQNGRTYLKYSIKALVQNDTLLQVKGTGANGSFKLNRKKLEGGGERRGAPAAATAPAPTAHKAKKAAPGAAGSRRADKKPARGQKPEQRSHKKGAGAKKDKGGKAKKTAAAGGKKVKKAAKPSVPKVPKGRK
TECR (human), sequence (Q9NZ01 whole entry): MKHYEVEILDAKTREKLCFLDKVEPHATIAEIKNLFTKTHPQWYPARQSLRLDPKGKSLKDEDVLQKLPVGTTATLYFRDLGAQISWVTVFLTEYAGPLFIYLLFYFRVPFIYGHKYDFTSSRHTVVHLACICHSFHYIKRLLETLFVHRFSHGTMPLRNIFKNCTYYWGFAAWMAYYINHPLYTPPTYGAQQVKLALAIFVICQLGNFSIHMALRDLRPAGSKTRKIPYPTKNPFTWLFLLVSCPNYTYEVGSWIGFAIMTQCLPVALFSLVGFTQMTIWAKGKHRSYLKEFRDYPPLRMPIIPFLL

C-terminal FLAG tagged B3GNT2 (from UniProt Q9NY97 1-397) (enzyme)
5: co-IP mass spectrometry count [2]
16: co-IP mass spectrometry count [12]
15: co-IP/MS count, C-term flag [13]
2: co-IP/MS count, C-term flag [4]
3: co-IP/MS count, C-term flag [9] | co-IP mass spectrometry count [10] | co-IP mass spectrometry count [11]
27: co-IP mass spectrometry count [7]
8: co-IP/MS count, C-term flag [5]
11: co-IP mass spectrometry count [3]
4: co-IP mass spectrometry count [1] | co-IP/MS count, C-term flag [6] | co-IP/MS count, C-term flag [8]

IgG control (Millipore Sigma 12-371) (antibody)
0: co-IP mass spectrometry count [14] | co-IP mass spectrometry count [15] | co-IP mass spectrometry count [16] | co-IP mass spectrometry count [17] | co-IP mass spectrometry count [18] | co-IP mass spectrometry count [19] | co-IP mass spectrometry count [20] | co-IP mass spectrometry count [21] | co-IP mass spectrometry count [22] | co-IP mass spectrometry count [23] | co-IP mass spectrometry count [24] | co-IP mass spectrometry count [25] | co-IP mass spectrometry count [26] | co-IP mass spectrometry count [27] | co-IP mass spectrometry count [28] | co-IP mass spectrometry count [29] | co-IP mass spectrometry count [31] | co-IP mass spectrometry count [32] | co-IP mass spectrometry count [33]
2: co-IP mass spectrometry count [30]
